From PMC314469, “Protein Interaction Networks by Proteome Peptide Scanning” (PLoS Biology, 2004)

Target: T1, Myo5 SH3 (MYO5_YEAST), Q04439
T1 chain: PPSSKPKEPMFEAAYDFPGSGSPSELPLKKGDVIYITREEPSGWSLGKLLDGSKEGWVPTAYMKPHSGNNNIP
Assay: SPOT array

Binder | normalised SPOT signal, Boehringer light units (BLU); mean over the file's lines of this peptide
TQSGRMGPSEPKHR [YML020W 26-39] | 456
TSSSRRGPGRPRKD [YDR310C 200-213] | 620
TSNTKWTPITPSVI [YDR515W 74-87] | 142
TTNSRLSPSSPSSS [YJR038C 2-15] | 161
TSSTKEKPTPPTTT [YIR019C 265-278] | 118
TSWARDNPSKPDIA [YHR209W 243-256] | 81.6
TSISRISPQDPEAK [YDR109C 25-38] | 194
TTRRKKDPNAPKRR [YBR089C-A 17-30] | 999
TSSLRKPPNGPSSV [YOR097C 144-157] | 144

The next lines start with the values.

normalised SPOT signal, Boehringer light units (BLU); mean over the file's lines of this peptide | Binder
275 | TTRKKKDPNAPKRA [YPR052C 11-24]
1680 | TTKHKAPPPPPPTA [YOR181W 179-192]
1870 | TTTIKNRPVPPPLP [YPL140C 79-92]
235 | TSGYKYFPQFPQLK [YOR227W 765-778]

Target: T2, Rvs167 SH3 (RV167_YEAST), P39743
T2 chain: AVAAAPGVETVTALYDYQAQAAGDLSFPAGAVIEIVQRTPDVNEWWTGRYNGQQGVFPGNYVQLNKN
Assay: SPOT array

Binder | normalised SPOT signal, Boehringer light units (BLU); mean over the file's lines of this peptide
TQSGRMGPSEPKHR [YML020W 26-39] | 336
TSSSRRGPGRPRKD [YDR310C 200-213] | 269
TSNTKWTPITPSVI [YDR515W 74-87] | 35
TTNSRLSPSSPSSS [YJR038C 2-15] | 203
TSSTKEKPTPPTTT [YIR019C 265-278] | 34.3
TSWARDNPSKPDIA [YHR209W 243-256] | 34.6
TSISRISPQDPEAK [YDR109C 25-38] | 8.5
TTRRKKDPNAPKRR [YBR089C-A 17-30] | 141
TSSLRKPPNGPSSV [YOR097C 144-157] | 455

Continued, values first:

normalised SPOT signal, Boehringer light units (BLU); mean over the file's lines of this peptide | Binder
78.7 | TTRKKKDPNAPKRA [YPR052C 11-24]
80 | TTKHKAPPPPPPTA [YOR181W 179-192]
598 | TTTIKNRPVPPPLP [YPL140C 79-92]
58.8 | TSGYKYFPQFPQLK [YOR227W 765-778]

Target: T3, Yhr016c SH3 (YSC84_YEAST), P32793
T3 chain: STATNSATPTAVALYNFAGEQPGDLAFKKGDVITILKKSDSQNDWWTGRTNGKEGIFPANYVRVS
Assay: SPOT array

Binder | normalised SPOT signal, Boehringer light units (BLU); mean over the file's lines of this peptide
TQSGRMGPSEPKHR [YML020W 26-39] | 109
TSSSRRGPGRPRKD [YDR310C 200-213] | 65
TSNTKWTPITPSVI [YDR515W 74-87] | 21
TTNSRLSPSSPSSS [YJR038C 2-15] | 27.4
TSSTKEKPTPPTTT [YIR019C 265-278] | 29.7
TSWARDNPSKPDIA [YHR209W 243-256] | 49.1
TSISRISPQDPEAK [YDR109C 25-38] | 19
TTRRKKDPNAPKRR [YBR089C-A 17-30] | 19.6
TSSLRKPPNGPSSV [YOR097C 144-157] | 37.6

Other lines, results leading:

normalised SPOT signal, Boehringer light units (BLU); mean over the file's lines of this peptide | Binder
54 | TTRKKKDPNAPKRA [YPR052C 11-24]
185 | TTKHKAPPPPPPTA [YOR181W 179-192]
32.8 | TTTIKNRPVPPPLP [YPL140C 79-92]
20.3 | TSGYKYFPQFPQLK [YOR227W 765-778]

Target: T4, Boi2 SH3 (BOI2_YEAST), P39969
T4 chain: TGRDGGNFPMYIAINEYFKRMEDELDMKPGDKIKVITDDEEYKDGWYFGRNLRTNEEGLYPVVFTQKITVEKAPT
Assay: SPOT array

Binder | normalised SPOT signal, Boehringer light units (BLU); mean over the file's lines of this peptide
TQSGRMGPSEPKHR [YML020W 26-39] | 34.4
TSSSRRGPGRPRKD [YDR310C 200-213] | 23.6
TSNTKWTPITPSVI [YDR515W 74-87] | 6.7
TTNSRLSPSSPSSS [YJR038C 2-15] | 27.3
TSSTKEKPTPPTTT [YIR019C 265-278] | 0.9
TSWARDNPSKPDIA [YHR209W 243-256] | 20.3
TSISRISPQDPEAK [YDR109C 25-38] | -0
TTRRKKDPNAPKRR [YBR089C-A 17-30] | 13
TSSLRKPPNGPSSV [YOR097C 144-157] | 17.3

Results, then the binder that gave them:

normalised SPOT signal, Boehringer light units (BLU); mean over the file's lines of this peptide | Binder
40.3 | TTRKKKDPNAPKRA [YPR052C 11-24]
20.8 | TTKHKAPPPPPPTA [YOR181W 179-192]
0 | TTTIKNRPVPPPLP [YPL140C 79-92]
32.8 | TSGYKYFPQFPQLK [YOR227W 765-778]

Target: T5, Yfr024 SH3 (LSB3_YEAST), P43603
T5 chain: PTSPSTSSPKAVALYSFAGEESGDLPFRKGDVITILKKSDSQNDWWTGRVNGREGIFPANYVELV
Assay: SPOT array

Binder | normalised SPOT signal, Boehringer light units (BLU); mean over the file's lines of this peptide
TQSGRMGPSEPKHR [YML020W 26-39] | 637
TSSSRRGPGRPRKD [YDR310C 200-213] | 969
TSNTKWTPITPSVI [YDR515W 74-87] | 36.9
TTNSRLSPSSPSSS [YJR038C 2-15] | 91.6
TSSTKEKPTPPTTT [YIR019C 265-278] | 58.6
TSWARDNPSKPDIA [YHR209W 243-256] | 260
TSISRISPQDPEAK [YDR109C 25-38] | 20.2
TTRRKKDPNAPKRR [YBR089C-A 17-30] | 341
TSSLRKPPNGPSSV [YOR097C 144-157] | 121

Next, values leading:

normalised SPOT signal, Boehringer light units (BLU); mean over the file's lines of this peptide | Binder
388 | TTRKKKDPNAPKRA [YPR052C 11-24]
141 | TTKHKAPPPPPPTA [YOR181W 179-192]
290 | TTTIKNRPVPPPLP [YPL140C 79-92]
134 | TSGYKYFPQFPQLK [YOR227W 765-778]

What follows are binders tested against Sho1 SH3 (SHO1_YEAST), P40073 (assay: SPOT array).
Sequence of Sho1 SH3 (SHO1_YEAST), P40073 (P40073 295-366): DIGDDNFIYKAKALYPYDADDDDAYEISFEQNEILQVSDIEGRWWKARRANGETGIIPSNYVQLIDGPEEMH

Binder | normalised SPOT signal, Boehringer light units (BLU); mean over the file's lines of this peptide
TQSGRMGPSEPKHR [YML020W 26-39] | 78.4
TSSSRRGPGRPRKD [YDR310C 200-213] | 416
TSNTKWTPITPSVI [YDR515W 74-87] | 18.6
TTNSRLSPSSPSSS [YJR038C 2-15] | 57.7
TSSTKEKPTPPTTT [YIR019C 265-278] | 21
TSWARDNPSKPDIA [YHR209W 243-256] | 40.9
TSISRISPQDPEAK [YDR109C 25-38] | 29.1
TTRRKKDPNAPKRR [YBR089C-A 17-30] | 106
TSSLRKPPNGPSSV [YOR097C 144-157] | 99

Other lines, results leading:

normalised SPOT signal, Boehringer light units (BLU); mean over the file's lines of this peptide | Binder
108 | TTRKKKDPNAPKRA [YPR052C 11-24]
6.1 | TTKHKAPPPPPPTA [YOR181W 179-192]
50.1 | TTTIKNRPVPPPLP [YPL140C 79-92]
36.2 | TSGYKYFPQFPQLK [YOR227W 765-778]

Target: T6, Boi1 SH3 (BOI1_YEAST), P38041
T6 chain: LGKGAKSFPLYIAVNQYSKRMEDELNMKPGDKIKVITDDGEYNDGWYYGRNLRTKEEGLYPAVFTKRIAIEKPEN
Assay: SPOT array

Binder | normalised SPOT signal, Boehringer light units (BLU); mean over the file's lines of this peptide
TQSGRMGPSEPKHR [YML020W 26-39] | 728
TSSSRRGPGRPRKD [YDR310C 200-213] | 418
TSNTKWTPITPSVI [YDR515W 74-87] | 29.7
TTNSRLSPSSPSSS [YJR038C 2-15] | 63
TSSTKEKPTPPTTT [YIR019C 265-278] | 0
TSWARDNPSKPDIA [YHR209W 243-256] | 82.3
TSISRISPQDPEAK [YDR109C 25-38] | 95.3
TTRRKKDPNAPKRR [YBR089C-A 17-30] | 424
TSSLRKPPNGPSSV [YOR097C 144-157] | 29.2

Second part, the binder after the results:

normalised SPOT signal, Boehringer light units (BLU); mean over the file's lines of this peptide | Binder
416 | TTRKKKDPNAPKRA [YPR052C 11-24]
-0 | TTKHKAPPPPPPTA [YOR181W 179-192]
86.4 | TTTIKNRPVPPPLP [YPL140C 79-92]
95.1 | TSGYKYFPQFPQLK [YOR227W 765-778]
